Assay results taken from IntAct's records for PubMed 32433612.

Target: tasl_human TASL (UniProt Q9HAI6)

| effect of a mutation on the interaction | Substance |
| --- | --- |
| with no effect | Solute carrier family 15 member 4 (Homo sapiens), Q8N697 L14A;L15A |
| with no effect | Solute carrier family 15 member 4 (Homo sapiens), Q8N697 E44A |

The remaining lines, values behind:

| Substance | effect of a mutation on the interaction |
| --- | --- |
| Solute carrier family 15 member 4 (Homo sapiens), Q8N697 E465K | disrupting interaction strength |
| Solute carrier family 15 member 4 (Homo sapiens), Q8N697 E465A | disrupting interaction strength |
| Solute carrier family 15 member 4 (Homo sapiens), Q8N697 E47A | with no effect |
